Measured values taken from IntAct's records for PubMed 16990850.

B1: Serine/threonine-protein kinase/endoribonuclease IRE1 (Saccharomyces cerevisiae), P32361 (parent)
chain: MRLLRRNMLVLTLLVCVFSSIISCSIPLSSRTSRRQIVEDEVASTKKLNFNYGVDKNINSPIPAPRTTEGLPNMKLSSYPTPNLLNTADNRRANKKGRRAANSISVPYLENRSLNELSLSDILIAADVEGGLHAVDRRNGHIIWSIEPENFQPLIEIQEPSRLETYETLIIEPFGDGNIYYFNAHQGLQKLPLSIRQLVSTSPLHLKTNIVVNDSGKIVEDEKVYTGSMRTIMYTINMLNGEIISAFGPGSKNGYFGSQSVDCSPEEKIKLQECENMIVIGKTIFELGIHSYDGASYNVTYSTWQQNVLDVPLALQNTFSKDGMCIAPFRDKSLLASDLDFRIARWVSPTFPGIIVGLFDVFNDLRTNENILVPHPFNPGDHESISSNKVYLDQTSNLSWFALSSQNFPSLVESAPISRYASSDRWRVSSIFEDETLFKNAIMGVHQIYNNEYDHLYENYEKTNSLDTTHKYPPLMIDSSVDTTDLHQNNEMNSLKEYMSPEDLEAYRKKIHEQISRELDEKNQNSLLLKFGSLVYRIIETGVFLLLFLIFCAILQRFKILPPLYVLLSKIGFMPEKEIPIVESKSLNCPSSSENVTKPFDMKSGKQVVFEGAVNDGSLKSEKDNDDADEDDEKSLDLTTEKKKRKRGSRGGKKGRKSRIANIPNFEQSLKNLVVSEKILGYGSSGTVVFQGSFQGRPVAVKRMLIDFCDIALMEIKLLTESDDHPNVIRYYCSETTDRFLYIALELCNLNLQDLVESKNVSDENLKLQKEYNPISLLRQIASGVAHLHSLKIIHRDLKPQNILVSTSSRFTADQQTGAENLRILISDFGLCKKLDSGQSSFRTNLNNPSGTSGWRAPELLEESNNLQCQVETEHSSSRHTVVSSDSFYDPFTKRRLTRSIDIFSMGCVFYYILSKGKHPFGDKYSRESNIIRGIFSLDEMKCLHDRSLIAEATDLISQMIDHDPLKRPTAMKVLRHPLFWPKSKKLEFLLKVSDRLEIENRDPPSALLMKFDAGSDFVIPSGDWTVKFDKTFMDNLERYRKYHSSKLMDLLRALRNKYHHFMDLPEDIAELMGPVPDGFYDYFTKRFPNLLIGVYMIVKENLSDDQILREFLYS
partner: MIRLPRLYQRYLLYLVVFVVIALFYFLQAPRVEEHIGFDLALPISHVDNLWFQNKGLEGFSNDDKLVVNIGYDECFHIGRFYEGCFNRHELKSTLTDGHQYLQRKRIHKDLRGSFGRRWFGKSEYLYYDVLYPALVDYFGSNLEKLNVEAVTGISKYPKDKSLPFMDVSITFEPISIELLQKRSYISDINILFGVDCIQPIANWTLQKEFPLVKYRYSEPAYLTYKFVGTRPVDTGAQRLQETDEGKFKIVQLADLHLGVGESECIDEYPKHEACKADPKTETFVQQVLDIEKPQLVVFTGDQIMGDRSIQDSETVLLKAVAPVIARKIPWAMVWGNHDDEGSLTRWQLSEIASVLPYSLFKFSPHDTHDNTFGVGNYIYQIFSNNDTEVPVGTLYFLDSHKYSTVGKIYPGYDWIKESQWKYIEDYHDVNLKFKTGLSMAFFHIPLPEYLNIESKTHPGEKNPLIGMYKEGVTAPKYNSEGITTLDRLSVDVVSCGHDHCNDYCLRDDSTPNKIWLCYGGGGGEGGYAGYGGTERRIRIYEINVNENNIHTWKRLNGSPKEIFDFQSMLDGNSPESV

Variants of: B1
Details: with dcr2_yeast DCR2, Q05924

effect of a mutation on the interaction	Variant
increasing interaction	S840A
increasing interaction	S841A
